Experiments:
La = target: T1, La (human, UniProt P05455 1-408); experiment: EMSA; 10-fold molar excess competitor tRNA; >90% of RNA shifted at 1:1 protein:RNA; 10 mM Tris-HCl pH 7.5, 100 mM NaCl, 3 mM MgCl2, 1 mM DTT, 10-fold molar excess tRNA, 80 ng hY1 RNA, 15 min at 37 C; native 8% PAGE at 4 C; conditions: protein: recombinant; label: 32P (alpha-32P UTP, internal)
T1 sequence: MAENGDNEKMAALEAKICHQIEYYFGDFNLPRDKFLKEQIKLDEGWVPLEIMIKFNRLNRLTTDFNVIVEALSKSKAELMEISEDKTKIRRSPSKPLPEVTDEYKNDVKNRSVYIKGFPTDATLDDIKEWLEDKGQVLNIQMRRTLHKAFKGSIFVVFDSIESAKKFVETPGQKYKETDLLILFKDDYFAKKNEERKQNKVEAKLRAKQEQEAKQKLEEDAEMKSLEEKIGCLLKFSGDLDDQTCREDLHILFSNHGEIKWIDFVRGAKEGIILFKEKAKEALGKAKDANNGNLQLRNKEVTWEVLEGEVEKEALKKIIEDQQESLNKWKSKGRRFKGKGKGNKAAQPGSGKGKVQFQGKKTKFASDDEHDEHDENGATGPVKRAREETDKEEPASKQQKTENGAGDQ

Ro60;La = Ro60;La (human;human, UniProt P10155;P05455 1-538;1-408, |); experiment: EMSA; 10-fold molar excess competitor tRNA; RNA:Ro60:La 1:4:4; super-shift, ternary complex; 10 mM Tris-HCl pH 7.5, 100 mM NaCl, 3 mM MgCl2, 1 mM DTT, 10-fold molar excess tRNA, 80 ng hY1 RNA, 15 min at 37 C; native 8% PAGE at 4 C; conditions: protein: recombinant;recombinant; copies: 1;1; label: 32P (alpha-32P UTP, internal)
Chain of Ro60;La (P10155 whole entry, one chain of several): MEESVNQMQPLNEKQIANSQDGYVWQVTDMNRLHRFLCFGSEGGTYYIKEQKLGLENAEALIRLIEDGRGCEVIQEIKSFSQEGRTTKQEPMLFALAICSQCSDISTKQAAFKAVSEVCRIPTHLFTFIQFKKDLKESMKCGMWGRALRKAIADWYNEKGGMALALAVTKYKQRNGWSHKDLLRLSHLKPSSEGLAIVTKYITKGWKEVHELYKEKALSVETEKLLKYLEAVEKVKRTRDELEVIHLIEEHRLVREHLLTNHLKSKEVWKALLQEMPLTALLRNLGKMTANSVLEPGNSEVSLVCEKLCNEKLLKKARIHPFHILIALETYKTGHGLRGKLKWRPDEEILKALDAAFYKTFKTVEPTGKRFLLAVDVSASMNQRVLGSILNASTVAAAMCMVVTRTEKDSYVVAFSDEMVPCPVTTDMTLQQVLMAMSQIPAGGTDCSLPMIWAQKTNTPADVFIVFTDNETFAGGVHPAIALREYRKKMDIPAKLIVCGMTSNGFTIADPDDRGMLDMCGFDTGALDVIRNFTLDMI

Ro60 = Ro60 (human, UniProt P10155 1-538); experiment: EMSA; 10-fold molar excess competitor tRNA; about 30-40% of RNA shifted at 4:1 protein:RNA; 10 mM Tris-HCl pH 7.5, 100 mM NaCl, 3 mM MgCl2, 1 mM DTT, 10-fold molar excess tRNA, 80 ng hY1 RNA, 15 min at 37 C; native 8% PAGE at 4 C; conditions: protein: recombinant; tags: poly-His (pET28a); label: 32P (alpha-32P UTP, internal)
Chain of Ro60 (P10155 whole entry): as the sequence (P10155 whole entry, one chain of several) above

Measured: binding result

B1: hY1 RNA (structured_RNA)
RNA: GGCUGGUCCGAAGGUAGUGAGUUAUCUCAAUUGAUUGUUCACAGUCAGUUACAGAUCGAACUCCUUGUUCUACUCUUUCCCCCCUUCUCACUACUGCACUUGACUAGUCUUU
binds: La | Ro60;La | Ro60

From publication PMC2965120, “Ribonucleoprotein Particles Containing Non-Coding Y RNAs, Ro60, La and Nucleolin Are Not Required for Y RNA Function in DNA Replication”
